{"source": "patent US20090117124A1", "key": {"[1]": {"biological_target": "cynomolgus monkey IgE (in cynomolgus serum, Harlan Sera-Lab Ltd) (cynomolgus monkey)", "assay": "capture ELISA, Test 2, Cyno 3"}, "[2]": {"biological_target": "cynomolgus monkey IgE (in cynomolgus serum, Harlan Sera-Lab Ltd) (cynomolgus monkey)", "assay": "capture ELISA, Test 2, Cyno 7"}, "[3]": {"biological_target": "cynomolgus monkey IgE (in cynomolgus serum, Harlan Sera-Lab Ltd) (cynomolgus monkey)", "assay": "capture ELISA, Test 2, Cyno 1"}, "[4]": {"biological_target": "cynomolgus monkey IgE (in cynomolgus serum, Harlan Sera-Lab Ltd) (cynomolgus monkey)", "assay": "capture ELISA, Test 1, Cyno 7"}, "[5]": {"biological_target": "cynomolgus monkey IgE (in cynomolgus serum, Harlan Sera-Lab Ltd) (cynomolgus monkey)", "assay": "capture ELISA, Test 1, Cyno 2"}, "[6]": {"biological_target": "cynomolgus monkey IgE (in cynomolgus serum, Harlan Sera-Lab Ltd) (cynomolgus monkey)", "assay": "capture ELISA, Test 1, Cyno 3"}, "[7]": {"biological_target": "cynomolgus monkey IgE (in cynomolgus serum, Harlan Sera-Lab Ltd) (cynomolgus monkey)", "assay": "capture ELISA, Test 1, Cyno 1"}, "[8]": {"biological_target": "cynomolgus monkey IgE (in cynomolgus serum, Harlan Sera-Lab Ltd) (cynomolgus monkey)", "assay": "capture ELISA, Test 1, Cyno 5"}, "[9]": {"biological_target": "cynomolgus monkey IgE (in cynomolgus serum, Harlan Sera-Lab Ltd) (cynomolgus monkey)", "assay": "capture ELISA, Test 2, Cyno 2"}, "[10]": {"biological_target": "cynomolgus monkey IgE (in cynomolgus serum, Harlan Sera-Lab Ltd) (cynomolgus monkey)", "assay": "capture ELISA, Test 2, Cyno 5"}}}
{"substance": "E25 (antibody)", "values": [{"measurement": "IgE concentration detected", "setting": "[1]", "result": 135, "unit": "ng/mL"}, {"measurement": "IgE concentration detected", "setting": "[2]", "result": 0, "unit": "ng/mL"}, {"measurement": "IgE concentration detected", "setting": "[3]", "result": 146, "unit": "ng/mL"}, {"measurement": "IgE concentration detected", "setting": "[4]", "result": 0, "unit": "ng/mL"}, {"measurement": "IgE concentration detected", "setting": "[5]", "result": 52, "unit": "ng/mL"}, {"measurement": "IgE concentration detected", "setting": "[6]", "result": 166, "unit": "ng/mL"}, {"measurement": "IgE concentration detected", "setting": "[7]", "result": 172, "unit": "ng/mL"}, {"measurement": "IgE concentration detected", "setting": "[8]", "result": 232, "unit": "ng/mL"}, {"measurement": "IgE concentration detected", "setting": "[9]", "result": 104, "unit": "ng/mL"}, {"measurement": "IgE concentration detected", "setting": "[10]", "result": 252, "unit": "ng/mL"}]}
